Literature values as cited in PMC5393932.

Molecular target: P-selectin (Homo sapiens) (UniProt P16109)
Sequence of UniProt P16109 (P16109 42-771): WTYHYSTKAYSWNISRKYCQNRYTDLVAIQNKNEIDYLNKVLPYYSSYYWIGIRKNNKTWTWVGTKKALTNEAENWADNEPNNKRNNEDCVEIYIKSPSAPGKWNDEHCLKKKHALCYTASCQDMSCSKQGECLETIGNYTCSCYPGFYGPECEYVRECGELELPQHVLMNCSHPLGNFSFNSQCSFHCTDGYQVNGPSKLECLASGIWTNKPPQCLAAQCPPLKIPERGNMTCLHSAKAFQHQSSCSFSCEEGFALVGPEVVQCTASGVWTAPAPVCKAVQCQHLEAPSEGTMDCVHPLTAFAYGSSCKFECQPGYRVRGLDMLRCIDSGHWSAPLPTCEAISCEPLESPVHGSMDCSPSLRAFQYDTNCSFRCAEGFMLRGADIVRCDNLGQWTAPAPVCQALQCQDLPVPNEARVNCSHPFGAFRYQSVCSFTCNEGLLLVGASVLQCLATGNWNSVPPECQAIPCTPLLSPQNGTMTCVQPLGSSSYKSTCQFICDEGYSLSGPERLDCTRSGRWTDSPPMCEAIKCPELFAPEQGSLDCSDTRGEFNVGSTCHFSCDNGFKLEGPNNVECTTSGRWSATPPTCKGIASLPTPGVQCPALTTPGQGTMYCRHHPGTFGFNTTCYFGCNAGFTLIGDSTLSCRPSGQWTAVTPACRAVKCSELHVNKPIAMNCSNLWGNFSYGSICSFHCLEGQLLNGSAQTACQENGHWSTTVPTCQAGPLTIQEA

Question: With PSGL-1 (from UniProt Q14242) as the substance, how does the Kd read?
Answer: 70 nM
